T1: Recombinant NS1 from DENV-4-Dominica/814669/1981 (dengue virus serotype 4 …, UniProt P09866 775-1126)
T1 chain: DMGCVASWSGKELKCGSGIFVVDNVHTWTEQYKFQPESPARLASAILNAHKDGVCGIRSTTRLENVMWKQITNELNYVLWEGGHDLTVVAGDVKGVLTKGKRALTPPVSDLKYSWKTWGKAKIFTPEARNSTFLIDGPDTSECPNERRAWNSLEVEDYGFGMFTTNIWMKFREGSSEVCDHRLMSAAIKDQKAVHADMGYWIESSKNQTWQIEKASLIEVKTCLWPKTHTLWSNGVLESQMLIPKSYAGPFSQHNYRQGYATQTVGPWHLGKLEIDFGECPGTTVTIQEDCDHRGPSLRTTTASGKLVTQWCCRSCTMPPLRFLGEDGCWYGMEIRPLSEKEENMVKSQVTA

T2: Recombinant NS1 from DENV-3-Sri Lanka D3/H/IMTSSA-SRI/2000/1266 (dengue virus serotype 3 (Sri Lanka …, UniProt Q6YMS4 774-1125))
T2 chain: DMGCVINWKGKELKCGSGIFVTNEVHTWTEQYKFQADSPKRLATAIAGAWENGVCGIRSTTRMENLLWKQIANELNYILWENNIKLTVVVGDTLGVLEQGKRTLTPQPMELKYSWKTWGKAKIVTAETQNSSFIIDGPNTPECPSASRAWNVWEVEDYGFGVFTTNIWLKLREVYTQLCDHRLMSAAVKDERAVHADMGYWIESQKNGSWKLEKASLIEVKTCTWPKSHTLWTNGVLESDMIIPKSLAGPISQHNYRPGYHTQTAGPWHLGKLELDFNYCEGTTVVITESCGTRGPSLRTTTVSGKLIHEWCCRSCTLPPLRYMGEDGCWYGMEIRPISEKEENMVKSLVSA

B1: Recombinant NS1 from DENV-1-Nauru/Western Pacific/1974 (natural protein)
chain: DSGCVINWKGRELKCGSGIFVTNEVHTWTEQYKFQADSPKRLSAAIGKAWEEGVCGIRSATRLENIMWKQISNELNHILLENDMKFTVVVGDVSGILAQGKKMIRPQPMEHKYSWKSWGKAKIIGADVQNTTFIIDGPNTPECPDNQRAWNIWEVEDYGFGIFTTNIWLKLRDSYTQVCDHRLMSAAIKDSKAVHADMGYWIESEKNETWKLARASFIEVKTCIWPKSHTLWSNGVLESEMIIPKIYGGPISQHNYRPGYFTQTAGPWHLGKLELDFDLCEGTTVVVDEHCGNRGPSLRTTTVTGKTIHEWCCRSCTLPPLRFKGEDGCWYGMEIRPVKEKEENLVKSMVSA

Columns and labels:
Test in all cases: BLI
[1] = target: T1, Recombinant NS1 from …
[2] = target: T3, Recombinant NS1 from DENV-2-Thailand/16681/84 (dengue virus serotype 2 …, UniProt P29990 776-1127)
T3 sequence (P29990 776-1127): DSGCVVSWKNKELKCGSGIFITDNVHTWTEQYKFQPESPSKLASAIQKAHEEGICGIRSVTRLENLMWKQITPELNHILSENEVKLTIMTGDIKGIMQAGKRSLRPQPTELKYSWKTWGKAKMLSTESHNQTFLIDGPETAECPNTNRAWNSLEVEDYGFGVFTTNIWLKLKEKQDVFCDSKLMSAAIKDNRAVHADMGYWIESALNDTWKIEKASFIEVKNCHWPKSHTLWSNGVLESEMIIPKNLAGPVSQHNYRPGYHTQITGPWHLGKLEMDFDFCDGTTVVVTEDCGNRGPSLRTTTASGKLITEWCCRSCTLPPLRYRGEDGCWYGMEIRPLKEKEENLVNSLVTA

[3] = target: T2, Recombinant NS1 from DENV-3-Sri Lanka …
[4] = target: B1
[5] = target: T1, Recombinant NS1 from …
[6] = target: T3, Recombinant NS1 from …; remark: listed apart in the source
[7] = target: T2, Recombinant NS1 from DENV-3-Sri Lanka …
[8] = target: B1
[9] = target: Den3

Row | Binder | Kd [1] [nM] | Kd [2] [pM] | Kd [3] [nM] | Kd [4] [nM] | koff [5] [s⁻¹] | koff [6] [s⁻¹] | koff [7] [s⁻¹] | koff [8] [s⁻¹] | Kd [9] [pM] | koff [9] [s⁻¹]
1 | A2 (antibody, V domains shown) VH: QVQLQESGGGVVQPGRSLRLFCAASGFTFSAFSTYAIHWVRQAPGKGLEWVAVISYDANNKYYADSVKGRFTISRDNFKSTLFLQMNSLRAEDTAVYYCARDRSDSGYDSYYYYYGMDVWGQGTTVTVSS VL: QSVVTQPPSVSAAPGQKVTISCSGSSSNIGRNYVSWYQHLPGTAPKLLIYDNNKRRSGIPDRFSGSKSDTTATLGITGLQTVDEADYYCGSWDNSLSAYVFGTGTKVTV | 4.41 | < 1 | < 0.001 | 1.61 | 0.0016 | < 1e-07 | < 1e-07 | 0.000221 | – | –
2 | D8 (antibody, V domains shown) VH: QVQLQESGPGLVKPSETLPLTCTVSGGSISNNGFYWGWIRQPPGKGLEWIGNIYYRGSTYYNPSLNSRVTISVDTSKNQFSLQLNSVTAADTAVYYCARLGIQLWFAIDYWGQGTLVTVSS VL: SVLTQPPAVSVALGQTVRITCQGDSLRSSYASWYQQKPGQAPVLIFYAKNNRPSGIPDRFSGSSSGNTASLTITGAQAEDEADYYCYSRDSSGNLWVFGGGTKLTVL | < 0.001 | < 1 | 0.569 | 1.06 | < 1e-07 | < 1e-07 | 6.68e-05 | 9.79e-05 | – | –
3 | D6 (antibody, V domains shown) VH: EVQLVQSGGGLVQPGRSLRLSCAASGFTFQDYAMHWVRQAPGKGLEWVSGIGRDSGTIDYADSVKGRFTISRDNAKNSLYLQMNSLRAEDTALYYCAKISNGYRPDNWGQGTLVTVSS VL: VLTQPPSVSVSPGQTARITCSGDVLAKRYARWFQQKPGQAPVVVIYKDSERPSGIPERLSGSSSGTTVTLTISGAQVEDEADYYCYCAADNNVVFGGGTKLTVL | 0.17 | < 1 | – | 2.67 | 5.9e-05 | < 1e-07 | – | 0.000344 | – | –
4 | B1 | – | – | – | – | – | – | – | – | < 1 | < 1e-07

From article PMC10194908 (2023)
